Columns and labels:
Assay in all cases: MST
[1] = biological target: H3K9me1 MLA (Methyl Lysine Analog) histone H3 (UniProt P84233)
[2] = biological target: H3K9me2 MLA (Methyl Lysine Analog) histone H3 (UniProt P84233)
[3] = biological target: H3K9me3 MLA (Methyl Lysine Analog) histone H3 (UniProt P84233)

EAP-1 chromodomain fused to GST (EAP-1chromo) (domain or fragment)
Kd [1]: 6140 nM | Kd [2]: 2050 nM | Kd [3]: 157 nM

Source: publication PMC4012616
